Measurements from PMC7954794, “Protein context shapes the specificity of SH3 domain-mediated interactions in vivo” (Nature Communications, 2021).

Test system: growth of yeast strains under 51 stress conditions
Test: Growth assays in 51 stress conditions (Fig. 1E-F, S2D, S5B)
Format: cell-based, Saccharomyces cerevisiae
Set-up: key to Growth (Fig. S2D) / growth of ABP1 SH3-swapped strains in stress condition: log2 colony size, average of median per strain (growth score)
Conditions: ABP1 SH3-swapped strains
In short: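 Yeast WT, SH3-deleted, KO, SH3-swapped and SH3-shuffled strains pinned in 1536 format, 12 replicates each; pregrown on YPD 2 days at 30 °C, then replicated onto 51 media at 37 °C and imaged every 2 h. Growth score = mean of per-plate median log2 colony size at 74 h.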

B1: MYO3 (protein, UniProt P36006 1-1272, looked up)
Myosin-3: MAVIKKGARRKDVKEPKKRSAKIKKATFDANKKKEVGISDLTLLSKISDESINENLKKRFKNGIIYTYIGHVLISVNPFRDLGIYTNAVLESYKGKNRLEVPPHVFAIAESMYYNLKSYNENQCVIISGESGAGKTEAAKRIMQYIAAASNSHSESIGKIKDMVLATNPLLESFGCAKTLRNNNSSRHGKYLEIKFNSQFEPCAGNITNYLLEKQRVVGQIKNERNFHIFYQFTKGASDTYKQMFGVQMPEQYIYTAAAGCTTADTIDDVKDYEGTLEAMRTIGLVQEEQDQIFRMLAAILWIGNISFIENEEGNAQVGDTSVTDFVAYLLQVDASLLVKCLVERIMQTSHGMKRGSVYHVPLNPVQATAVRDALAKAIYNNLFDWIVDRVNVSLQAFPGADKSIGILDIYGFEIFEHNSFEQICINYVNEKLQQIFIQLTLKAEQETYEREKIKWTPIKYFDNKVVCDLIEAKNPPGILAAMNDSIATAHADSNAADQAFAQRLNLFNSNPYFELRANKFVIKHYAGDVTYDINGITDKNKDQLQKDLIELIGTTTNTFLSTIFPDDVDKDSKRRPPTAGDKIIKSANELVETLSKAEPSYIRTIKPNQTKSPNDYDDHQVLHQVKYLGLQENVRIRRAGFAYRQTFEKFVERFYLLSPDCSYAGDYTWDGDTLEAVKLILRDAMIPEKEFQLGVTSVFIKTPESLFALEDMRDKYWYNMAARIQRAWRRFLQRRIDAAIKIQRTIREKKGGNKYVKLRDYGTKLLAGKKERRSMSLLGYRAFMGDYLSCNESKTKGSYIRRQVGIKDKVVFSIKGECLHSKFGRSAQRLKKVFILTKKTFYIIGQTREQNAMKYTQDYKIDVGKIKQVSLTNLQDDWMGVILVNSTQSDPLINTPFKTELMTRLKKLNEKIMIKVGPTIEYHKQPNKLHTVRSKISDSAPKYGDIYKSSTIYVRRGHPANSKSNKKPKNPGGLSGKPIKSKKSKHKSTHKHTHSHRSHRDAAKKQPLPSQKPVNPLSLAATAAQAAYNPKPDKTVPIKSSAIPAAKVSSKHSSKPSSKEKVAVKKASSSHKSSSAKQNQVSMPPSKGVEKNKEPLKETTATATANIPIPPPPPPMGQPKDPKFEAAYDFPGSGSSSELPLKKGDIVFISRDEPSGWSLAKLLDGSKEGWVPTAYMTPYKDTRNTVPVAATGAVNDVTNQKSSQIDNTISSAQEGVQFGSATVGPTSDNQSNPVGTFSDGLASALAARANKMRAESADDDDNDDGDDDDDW
For B1, the “Growth (Fig. S2D)” value (Bathophenanthroline.0.1uM) was 10.752, the “Growth (Fig. S2D)” value (Bathophenanthroline.10uM) was 10.5714 and the “Growth (Fig. S2D)” value (Bathophenanthroline.1uM) was 10.7108. For the same molecule, the “Growth (Fig. S2D)” value (CaCl2.250mM) was 10.7527, the “Growth (Fig. S2D)” value (CaCl2.500mM) was 10.1691 and the “Growth (Fig. S2D)” value (Caffein.10mM) was 9.976. The “Growth (Fig. S2D)” value (Caffein.2mM) was 10.8692, the “Growth (Fig. S2D)” value (CdCl2.100uM) was 9.202 and the “Growth (Fig. S2D)” value (CdCl2.10uM) was 10.8049. For the same molecule, the “Growth (Fig. S2D)” value (CdCl2.50uM) was 9.536, the “Growth (Fig. S2D)” value (CuSO4.1mM) was 10.0301 and the “Growth (Fig. S2D)” value (CuSO4.5mM) was 7.358. The “Growth (Fig. S2D)” value (Cycloheximide.0.05.uM) was 11.0001, the “Growth (Fig. S2D)” value (Cycloheximide.0.2.uM) was 10.4991 and the “Growth (Fig. S2D)” value (Cycloheximide.0.5.uM) was 9.9209. For the same molecule, the “Growth (Fig. S2D)” value (DMSO.2.) was 10.998, the “Growth (Fig. S2D)” value (DMSO.6.) was 9.853 and the “Growth (Fig. S2D)” value (DMSO.8.) was 9.243. The “Growth (Fig. S2D)” value (Ethanol.2.) was 10.6338, the “Growth (Fig. S2D)” value (Ethanol.6.) was 10.0843 and the “Growth (Fig. S2D)” value (Ethanol.8.) was 9.865. The “Growth (Fig. S2D)” value (Galactose.2.) was 10.6373, the “Growth (Fig. S2D)” value (Glycerol.2.) was 8.89 and the “Growth (Fig. S2D)” value (Hydroxyurea.25mM) was 10.6592. The “Growth (Fig. S2D)” value (Hygromycin.190uM) was 10.9229, the “Growth (Fig. S2D)” value (Hygromycin.19uM) was 10.8956 and the “Growth (Fig. S2D)” value (Hygromycin.95uM) was 10.9112. For the same molecule, the “Growth (Fig. S2D)” value (MMS.0.004.) was 10.8802, the “Growth (Fig. S2D)” value (MMS.0.02.) was 10.4477 and the “Growth (Fig. S2D)” value (MMS.0.04.) was 9.333. For the same molecule, the “Growth (Fig. S2D)” value (Menadione.100uM) was 10.5316, the “Growth (Fig. S2D)” value (Menadione.200uM) was 10.3415 and the “Growth (Fig. S2D)” value (Menadione.50uM) was 10.7191. The “Growth (Fig. S2D)” value (NaCl.0.25M) was 10.6458, the “Growth (Fig. S2D)” value (NaCl.1M) was 9.0624 and the “Growth (Fig. S2D)” value (Nitroquinoline.10uM) was 10.5815. For the same molecule, the “Growth (Fig. S2D)” value (Nitroquinoline.50uM) was 10.5108, the “Growth (Fig. S2D)” value (Nystatin.0.01uM) was 10.9576 and the “Growth (Fig. S2D)” value (Nystatin.0.1uM) was 10.9795. For the same molecule, the “Growth (Fig. S2D)” value (Raffinose.2.) was 10.915, the “Growth (Fig. S2D)” value (Rapamycin.10nM) was 9.682 and the “Growth (Fig. S2D)” value (Rapamycin.50nM) was 9.448. The “Growth (Fig. S2D)” value (SC.pH3) was 10.2912, the “Growth (Fig. S2D)” value (SC.pH6) was 10.9261 and the “Growth (Fig. S2D)” value (SDS.0.01.) was 10.9246. The “Growth (Fig. S2D)” value (SDS.0.02.) was 10.9437, the “Growth (Fig. S2D)” value (SDS.0.05.) was 10.7731 and the “Growth (Fig. S2D)” value (Sorbitol.10mM) was 10.9112. For the same molecule, the “Growth (Fig. S2D)” value (Sorbitol.1mM) was 11.0073 and the “Growth (Fig. S2D)” value (Sorbitol.5mM) was 10.8833.

B2: LSB3 (protein)
chain: MGINNPIPRSLKSETKKAAKILASFVKPNQVFGADQVIPPDVLKRAKGLAIITILKAGFLFSGRAGSGVIVARLKDGTWSAPSAIAMAGAGAGGMVGIELTDFVFILNTQDAVKSFSEFGTITLGGNVSVSAGPLGRSAEAAASASAGGVAAVFAYSKSKGLFAGVSVEGSAIIERREANRKFYGDNCTAKMILSGRIRPPPAVDPLFRVLESRAFNYRPSNGGRGSFDDDEDDYYDDDDYYNDIPSSFSSTDASSTRPNTRSTRRRAQSGSRYTFDDDDDDDDYGTGYSRNSRLAPTNSGGSGGKLDDPSGASSYYASHRRSGTAQSRARSSRNRWADDEYDDYDDDYESGYRRGNGRDRTKDREVDDLSNRFSKSRISSASTPQTSQGRFTAPTSPSTSSPKAVALYSFAGEESGDLPFRKGDVITILKKSDSQNDWWTGRVNGREGIFPANYVELV
modifications: left off: DHFR F[3], C-terminal, kept
For B2, the “Growth (Fig. S2D)” value (Bathophenanthroline.0.1uM) was 10.8613, the “Growth (Fig. S2D)” value (Bathophenanthroline.10uM) was 10.7004 and the “Growth (Fig. S2D)” value (Bathophenanthroline.1uM) was 10.8044. The “Growth (Fig. S2D)” value (CaCl2.100mM) was 10.8415, the “Growth (Fig. S2D)” value (CaCl2.250mM) was 10.752 and the “Growth (Fig. S2D)” value (CaCl2.500mM) was 10.2861. The “Growth (Fig. S2D)” value (Caffein.10mM) was 10.1331, the “Growth (Fig. S2D)” value (Caffein.2mM) was 11.0359 and the “Growth (Fig. S2D)” value (CdCl2.100uM) was 9.517. The “Growth (Fig. S2D)” value (CdCl2.10uM) was 10.8992, the “Growth (Fig. S2D)” value (CdCl2.50uM) was 9.9 and the “Growth (Fig. S2D)” value (CuSO4.1mM) was 10.501. For the same molecule, the “Growth (Fig. S2D)” value (CuSO4.5mM) was 7.988, the “Growth (Fig. S2D)” value (Cycloheximide.0.05.uM) was 11.1308 and the “Growth (Fig. S2D)” value (Cycloheximide.0.2.uM) was 10.6758. The “Growth (Fig. S2D)” value (Cycloheximide.0.5.uM) was 10.143, the “Growth (Fig. S2D)” value (DMSO.2.) was 11.0244 and the “Growth (Fig. S2D)” value (DMSO.6.) was 9.802. The “Growth (Fig. S2D)” value (DMSO.8.) was 9.136, the “Growth (Fig. S2D)” value (Ethanol.2.) was 10.7759 and the “Growth (Fig. S2D)” value (Ethanol.6.) was 10.3185. The “Growth (Fig. S2D)” value (Ethanol.8.) was 10.0689, the “Growth (Fig. S2D)” value (Galactose.2.) was 10.7876 and the “Growth (Fig. S2D)” value (Glycerol.2.) was 9.905. The “Growth (Fig. S2D)” value (Hydroxyurea.25mM) was 10.8417, the “Growth (Fig. S2D)” value (Hygromycin.190uM) was 11 and the “Growth (Fig. S2D)” value (Hygromycin.19uM) was 10.9944. The “Growth (Fig. S2D)” value (Hygromycin.95uM) was 11.0899, the “Growth (Fig. S2D)” value (MMS.0.004.) was 10.9826 and the “Growth (Fig. S2D)” value (MMS.0.02.) was 10.7326. The “Growth (Fig. S2D)” value (MMS.0.04.) was 10.0186, the “Growth (Fig. S2D)” value (Menadione.100uM) was 10.5511 and the “Growth (Fig. S2D)” value (Menadione.200uM) was 10.5189. For the same molecule, the “Growth (Fig. S2D)” value (Menadione.50uM) was 10.8398, the “Growth (Fig. S2D)” value (NaCl.0.25M) was 10.7826 and the “Growth (Fig. S2D)” value (NaCl.1M) was 9.561. The “Growth (Fig. S2D)” value (Nitroquinoline.10uM) was 10.7432, the “Growth (Fig. S2D)” value (Nitroquinoline.50uM) was 10.6203 and the “Growth (Fig. S2D)” value (Nystatin.0.01uM) was 11.0314. The “Growth (Fig. S2D)” value (Nystatin.0.1uM) was 11.0473, the “Growth (Fig. S2D)” value (Raffinose.2.) was 11.0154 and the “Growth (Fig. S2D)” value (Rapamycin.10nM) was 9.815. The “Growth (Fig. S2D)” value (Rapamycin.50nM) was 9.462, the “Growth (Fig. S2D)” value (SC.pH3) was 10.4429 and the “Growth (Fig. S2D)” value (SC.pH6) was 11.0914. For the same molecule, the “Growth (Fig. S2D)” value (SDS.0.01.) was 10.9846, the “Growth (Fig. S2D)” value (SDS.0.02.) was 11.0384 and the “Growth (Fig. S2D)” value (SDS.0.05.) was 10.8514. The “Growth (Fig. S2D)” value (Sorbitol.10mM) was 10.9664, the “Growth (Fig. S2D)” value (Sorbitol.1mM) was 11.0248 and the “Growth (Fig. S2D)” value (Sorbitol.5mM) was 10.914.
